Measured values reported in US20040087498A1, “Modified factor VII” (Novo Nordisk Health Care AG, priority 1991, published 2004).
Like-named read-outs stand apart in the source and are kept apart here.

Tests used:
[1] = system: Factor VII-deficient plasma; test: One-stage clotting assay of coagulant activity; assay type: biochemical, human
Method: The ability of the modified Factor VII protein to inhibit clotting was measured in a one-stage clotting assay using wild-type Factor VII as a control. Recombinant proteins were prepared essentially as described above from cells cultured in media containing 5 μg/ml vitamin K. Varying amounts of the modified Factor VII (from clone 544) or recombinant wild-type Factor VII were diluted in 50 mM Tris pH 7.5, 0.1% BSA to 100 μl. The mixtures were incubated with 100 μl of Factor VII-deficient plasma (George King Bio-Medical Inc., Overland Park, Kans.) and 200 μl of thromboplastin C (Dade, Miami, Fla.; contains rabbit brain thromboplastin and 11.8 mM Ca^++). The clotting assay was performed in an automatic coagulation timer (MLA Electra 800, Medical Laboratory Automation Inc., Pleasantville, N.Y.), and clotting times were converted to units of Factor VII activity using a standard curve constructed with 1:5 to 1:640 dilutions of normal pooled human plasma (assumed to contain-one unit per ml Factor VII activity; prepared by pooling citrated […] from healthy donors). […] Factor VII activity is seen as a reduction in clotting time over control samples.

[2] = biological target: T1, cell-surface tissue factor on rat vascular smooth muscle cells (Rattus norvegicus, UniProt P42533); test: Factor Xa generation on rat smooth muscle cells (S-2222); assay type: cell-based; conditions: 10 nM Factor VIIa
T1 construct: endogenous in cells; host or cells: rat vascular smooth muscle cells
T1 sequence (P42533 29-295): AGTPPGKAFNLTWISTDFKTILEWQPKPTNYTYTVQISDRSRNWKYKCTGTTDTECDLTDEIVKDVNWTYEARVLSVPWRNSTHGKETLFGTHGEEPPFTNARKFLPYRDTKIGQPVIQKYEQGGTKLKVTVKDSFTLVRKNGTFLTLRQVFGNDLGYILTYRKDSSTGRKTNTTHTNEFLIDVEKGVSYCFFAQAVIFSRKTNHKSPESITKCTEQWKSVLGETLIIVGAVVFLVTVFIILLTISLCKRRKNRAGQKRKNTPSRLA
Method: Vascular smooth muscle-cells were analyzed for the presence of cell-surface tissue factor by measuring the ability of the cells to stimulate the conversion of Factor X to Factor Xa using a chromogenic substrate that is specific for Factor Xa.
Rat vascular smooth muscle cells (Clowes et al., J. Clin. Invest. 93:644-651 (1994)) were plated into 96-well culture dishes (American Scientific Products, Chicago, Ill.) at 8,000 cells per well in growth media (Table 4).
After a 48 hour incubation at 37° C. the medium was changed to serum free medium (Table 5).
The cells were incubated 72 hours at 37° C. After incubation, either PDGF-BB (10 ng/ml) or 10% fetal calf serum was added to the cells to stimulate tissue factor expression (Taubman et al., J. Clin. Invest, 21:547-552, 1993). A parallel set of cells received neither PDGF nor serum to monitor for intrinsic activity of unstimulated cells. […] The cells were incubated for 2 hours at 37° C. and washed with HEPES buffer (10 mM HEPES, 137 mM NaCl, 4 mM KCl, 5 mM CaCl2, 11 mM glucose, 0.1% BSA). After washing, cells were incubated for 5 min with 50 μl per well of 200 nM plasma-purified human Factor X in a Tris-buffered saline supplemented with 5 mM CaCl2. Twenty-five microliters of 0.5 M EDTA and 25 μl of an 800 μM solution of S-2222 chromogenic substrate (Kabi Pharmacia, Franklin, Ohio) were added to each well. The plates were incubated for 40 min at room temperature, then analyzed at 405 nm using a THERMOMAX microplate reader (Molecular Devices, Menlo Park, Calif.).

[3] = biological target: T2, cell-surface tissue factor on rat smooth muscle cells (Rattus norvegicus, UniProt P42533); test: Dose-dependent cell-surface chromogenic activity on rat smooth muscle cells; assay type: cell-based
T2 construct: endogenous in cells; host or cells: rat vascular smooth muscle cells
T2 sequence (P42533 29-295): T1 sequence (P42533 29-295)
Method: Rat vascular smooth muscle cells were plated into 96-well culture dishes at 4,000 cells per well in growth medium supplemented with 1% fetal calf serum (as in Table 4 without 10% fetal calf serum). […] The cells were incubated with the Factor VII mixtures for 2 hours at 37° C. After incubation, the cells were washed and incubated with 50 μl of 200 nM Factor X in tris buffered saline for 5 minutes at room temperature. Each well had 25 μl of 0.5 M EDTA and 25 μl of […] S-2222 (Kabi Pharmacia) added to it, and the plates were incubated for 40 minutes at room temperature. Chromogenic activity was analyzed at 405 nm in a microplate reader as described above.

[4] = biological target: T1, cell-surface tissue factor on rat vascular smooth muscle cells; test: Inhibition of cell-surface chromogenic activity by DEGR-Factor VIIa; assay type: cell-based; conditions: 10 nM Factor VIIa; cells stimulated with 10% fetal calf serum
Method: Rat vascular smooth muscle cells were plated into 96-well culture dishes as described above. The cells were cultured for 72 hours in serum free media as described above and treated with the addition of 10% fetal calf serum for 6 hours to stimulate tissue factor expression. […] The cells were incubated for 2 hours at 37° C., then washed with HEPES buffer. After washing, the cells were incubated for 5 minutes with […] per well of 200 nM Factor X in Tris-buffered saline supplemented with 5 mM CaCl2. Twenty-five microliters of 0.5 M EDTA and 25 μl of S-2222 (800 μM) chromogenic substrate (Kabi Pharmacia) were added to each well. The cells were incubated at room temperature for 40 minutes. Chromogenic activity was analyzed at 405 nm as described above.

[5] = biological target: purified recombinant soluble tissue factor
[6] = biological target: T3, cell-surface tissue factor on rat vascular smooth muscle cells (rat) (UniProt P42533)
T3 sequence: T1 sequence (P42533 29-295)

[7] = biological target: T3, cell-surface tissue factor on rat vascular smooth muscle cells (rat); remark: listed apart in the source
[8] = biological target: T3, cell-surface tissue factor on rat vascular smooth muscle cells (rat); remark: listed apart in the source
[9] = in vivo; cited from earlier work
[10] = biological target: T4, tissue factor (thromboplastin) (Oryctolagus cuniculus, UniProt P24055); test: One-step clotting mixing assay with a limiting amount of tissue factor; assay type: biochemical, rabbit
T4 construct: contains rabbit brain thromboplastin; purchased Dade, Miami, Fla. thromboplastin-C; host or cells: rabbit brain extract
T4 sequence (P24055 33-292): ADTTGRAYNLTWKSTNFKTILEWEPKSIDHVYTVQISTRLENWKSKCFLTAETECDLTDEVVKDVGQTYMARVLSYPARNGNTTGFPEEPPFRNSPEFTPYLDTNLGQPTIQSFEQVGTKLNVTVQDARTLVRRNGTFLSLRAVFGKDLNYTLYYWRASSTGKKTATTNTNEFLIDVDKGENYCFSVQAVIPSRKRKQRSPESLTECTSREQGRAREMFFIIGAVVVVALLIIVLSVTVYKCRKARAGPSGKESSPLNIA
Method: The ability of the modified Factor VII to compete with wild-type Factor VII for tissue factor and inhibit its clotting activity was assessed in a one-step clotting assay in the presence of a limiting amount of tissue factor (thromboplastin).
Clotting times were determined in a one-step assay similar to that described in Example II. A limited amount of tissue factor, a constant amount of wild type Factor VII, and increasing amounts of variant Factor VII were used in the mixing experiments. An inhibition of Factor VII/VIIa procoagulant activity would be seen as an increase in clotting time in assays containing increasing amounts of variant Factor VII.
The amount of Factor VII activity in the test samples was calculated as a percentage of a standard curve that measured Factor VII activity in normal pooled plasma. The standard curve for Factor VII activity was generated using serial dilutions of normal pooled plasma in phosphate buffered solution (PBS) that ranged from 1:5 to 1:640. For this purpose it was assumed that normal plasma contains approximately 500 ng/ml of Factor VII and this was considered to be one unit of activity. A mixture of 100 μl Factor VII-deficient plasma, 100 μl plasma dilution and 200 μl of thromboplastin-C (Dade, Miami, Fla.) was used to measure clotting time on a MLA Electra 800 automatic timer. To establish the standard curve, the results were graphed as percentage of activity (1:5=100% activity) versus clotting time in seconds.
The assay required that the medium containing the wild type and variant Factor VII be composed of less than one percent serum. The dilutions were made in PBS so that clotting times would fall along the standard curve. A minimum dilution of 1:2 was typical. The final volume was 100 μl. Two different human Factor VII Ser344→Ala variants, designated clones “#10” and “#6” were tested in the experiments.

[11] = biological target: cell-surface tissue factor on baboon smooth muscle cells (baboon)
[12] = biological target: tissue factor preparation, saline extract of baboon brain (baboon)
[13] = biological target: purified recombinant soluble tissue factor; remark: listed apart in the source
[14] = biological target: tissue factor (thromboplastin C, rabbit brain thromboplastin) (rabbit) (UniProt P24055)
[15] = variant medium 10 μl + B4A1 (wild type) medium 10 μl
[16] = variant medium 20 μl + B4A1 (wild type) medium 10 μl
[17] = variant medium 30 μl + B4A1 (wild type) medium 10 μl
[18] = variant medium 40 μl + B4A1 (wild type) medium 10 μl
[19] = variant medium 50 μl + B4A1 (wild type) medium 10 μl

Q: Which results are given for “Wild-type Factor VII: recombinant wild-type Factor VII used as a control”?
A: Clotting time ([1]; dilution 1:20): 19.0 s; Clotting time ([1]; dilution 1:40): 21.5 s; Clotting time ([1]; dilution 1:80): 23.3 s

Q: Which OD405 ([2]; Intrinsic (unstimulated cells)) does the source give for “Factor VIIa: Recombinant human Factor VIIa, activated two-chain form [reference compound]” here?
A: .247

Q: What about the OD405 ([2]; cells stimulated with 10% FCS) of the same molecule?
A: .342

Q: What about the OD405 ([2]; cells stimulated with PDGF-BB (10 ng/ml)) of the same molecule?
A: .360

Q: And the OD405 ([3]; Factor VIIa 1.56 nM alone)?
A: .058

Q: What about the OD405 ([3]; Factor VIIa 6.25 nM alone) of the same molecule?
A: .111

Q: What about the OD405 ([3]; Factor VIIa 25.00 nM alone) of the same molecule?
A: .154

Q: And the OD405 ([3]; Factor VIIa 100.00 nM alone)?
A: .208

Q: What about the OD405 ([3]; Factor VIIa .10 nM alone) of the same molecule?
A: .005

Q: And the OD405 ([3]; Factor VIIa .39 nM alone)?
A: .025

Q: What about the OD405 [4] of the same molecule?
A: .342

Q: With “recombinant human Factor VIIa (from UniProt P08709) (enzyme)” as the molecule, how does the OD405 (Factor Xa chromogenic activity, S-2222) [5] read?
A: 0.79 OD405

Q: What about the OD405 (Factor Xa chromogenic activity, S-2222) [6] of the same molecule?
A: 0.208 OD405

Q: What about the OD405 (Factor Xa chromogenic activity, S-2222) [7] of the same molecule?
A: 0.342 OD405

Q: And the OD405 (Factor Xa chromogenic activity, S-2222) [8]?
A: 0.36 OD405

Q: For heparin, which half-life [9] is on record?
A: approximately 80 minutes

Q: With “Modified Factor VII (#6): human Factor VII Ser344→Ala variant, clone #6” as the molecule, how does the “Clotting time” value ([1]; dilution 1:1) read?
A: 33.5 s

Q: What about the “Percent FVIIa Activity” value [10, 15] of the same molecule?
A: 74%

Q: And the “Percent FVIIa Activity” value [10, 16]?
A: 56%

Q: And the “Percent FVIIa Activity” value [10, 17]?
A: 46%

Q: What about the “Percent FVIIa Activity” value [10, 18] of the same molecule?
A: 41%

Q: And the “Percent FVIIa Activity” value [10, 19]?
A: 32%

Q: Which inhibition of Factor Xa chromogenic activity on baboon smooth muscle cells [11] does the source give for “DEGR-Factor VIIa (from UniProt P08709) (enzyme)” here?
A: > 90%

Q: And the Clotting time [12]?
A: 158 s

Q: What about the OD405 (Factor Xa chromogenic activity, S-2222) [13] of the same molecule?
A: 0.055 OD405

Q: With “Modified Factor VII (#10): human Factor VII Ser344→Ala variant, clone #10” as the molecule, how does the “Clotting time” value ([1]; dilution 1:1) read?
A: 32.5 s

Q: What about the “Percent FVIIa Activity” value [10, 15] of the same molecule?
A: 70%

Q: What about the “Percent FVIIa Activity” value [10, 16] of the same molecule?
A: 51%

Q: What about the “Percent FVIIa Activity” value [10, 17] of the same molecule?
A: 43%

Q: What about the “Percent FVIIa Activity” value [10, 18] of the same molecule?
A: 34%

Q: What about the “Percent FVIIa Activity” value [10, 19] of the same molecule?
A: 28%

Q: For “human Factor VII Ser344→Ala variant (from UniProt P08709) (enzyme)”, which Percent FVIIa Activity [14] is on record?
A: 28%

Q: Which Percent FVIIa Activity [14] does the source give for “human Factor VII Ser344→Ala variant expressed without vitamin K (from UniProt P08709) (enzyme)” here?
A: 78%

B1: #10 (−K): Ser344→Ala variant clone #10 expressed by cells grown without vitamin K (protein, UniProt P08709 1-466, looked up, variant S344A)
chain: MVSQALRLLCLLLGLQGCLAAGGVAKASGGETRDMPWKPGPHRVFVTQEEAHGVLHRRRRANAFLEELRPGSLERECKEEQCSFEEAREIFKDAERTKLFWISYSDGDQCASSPCQNGGSCKDQLQSYICFCLPAFEGRNCETHKDDQLICVNENGGCEQYCSDHTGTKRSCRCHEGYSLLADGVSCTPTVEYPCGKIPILEKRNASKPQGRIVGGKVCPKGECPWQVLLLVNGAQLCGGTLINTIWVVSAAHCFDKIKNWRNLIAVLGEHDLSEHDGDEQSRRVAQVIIPSTYVPGTTNHDIALLRLHQPVVLTDHVVPLCLPERTFSERTLAFVRFSLVSGWGQLLDRGATALELMVLNVPRLMTQDCLQQSRKVGDSPNITEYMFCAGYSDGSKDSCKGDAGGPHATHYRGTWYLTGIVSWGQGCATVGHFGVYTRVSQYIEWLQKLMRSEPRPGVLLRAPFP
modifications: expressed without vitamin K
notes: Ser344→Ala variant clone #10 expressed by cells grown without vitamin K
Q: With B1 as the molecule, how does the “Percent FVIIa Activity” value [10, 16] read?
A: 78%

B2: #6 (−K): Ser344→Ala variant clone #6 expressed by cells grown without vitamin K (protein, UniProt P08709 1-466, looked up, variant S344A)
chain: B1 chain
modifications: expressed without vitamin K
notes: Ser344→Ala variant clone #6 expressed by cells grown without vitamin K
Q: Which “Percent FVIIa Activity” value [10, 16] does the source give for B2 here?
A: 85%
